In experiment [1] the target is human CD4 antigen expressed on rat T cell line NB2-6TG (human) (UniProt P01730). In words: FACS, NB2-6TG cells transfected with human CD4; Experiment 1; control antibody at 10 µg/ml.
The target is the same in experiment [2]. The experiment is described as follows: FACS, NB2-6TG cells transfected with human CD4; Experiment 1; control antibody at 40 µg/ml.
For experiment [3] the target is unchanged. In words: FACS, NB2-6TG cells transfected with human CD4; Experiment 1; control antibody at 100 µg/ml.
The target is the same in experiment [4]. In words: FACS, NB2-6TG cells transfected with human CD4; Experiment 1; control antibody at 2.5 µg/ml.

Take reshaped CAMPATH-1 antibody: the Mean cellular Fluorescence in experiment [1] amounted to 9; in experiment [2], 9.4; in experiment [3], 11.6; in experiment [4], 8.6.

These data come from patent USRE46877.
